From article doi:10.1101/494930 (bioRxiv, 2018)
Several values for one entry are separate records, joined by “and”; a condition that tells them apart may be missing. Equal entries are not always repeated.

B1: WT-HYPE (aa 102-458) (enzyme)
chain: GKLEARAALNQALEMKRQGKREKAQKLFMHALKMDPDFVDALTEFGIFSEEDKDIIQADYLYTRALTISPYHEKALVNRDRTLPLVEEIDQRYFSIIDSKVKKVMSIPKGNSALRRVMEETYYHHIYHTVAIEGNTLTLSEIRHILETRYAVPGKSLEEQNEVIGMHAAMKYINTTLVSRIGSVTISDVLEIHRRVLGYVDPVEAGRFRTTQVLVGHHIPPHPQDVEKQMQEFVQWLNSEEAMNLHPVEFAALAHYKLVYIHPFIDGNGRTSRLLMNLILMQAGYPPITIRKEQRSDYYHVLEAANEGDVRPFIRFIAKCTETTLDTLLFATTEYSVALPEAQPNHSGFKETLPVKP
B2: His6-BiP SBD (aa 418-637) (domain or fragment)
chain: not shown

Legend:
Assay in all cases: BLI
[1] = biological target: BiP-His6 (WT-BiP, aa 19-637) (human, UniProt P11021 19-637)
His6-BiP NBD (aa 28-405) = His6-BiP NBD (aa 28-405) (human, UniProt P11021 28-405)
WT-HYPE (aa 102-458) = biological target: B1

Sequence of BiP-His6 (WT-BiP, aa 19-637) (P11021 19-637): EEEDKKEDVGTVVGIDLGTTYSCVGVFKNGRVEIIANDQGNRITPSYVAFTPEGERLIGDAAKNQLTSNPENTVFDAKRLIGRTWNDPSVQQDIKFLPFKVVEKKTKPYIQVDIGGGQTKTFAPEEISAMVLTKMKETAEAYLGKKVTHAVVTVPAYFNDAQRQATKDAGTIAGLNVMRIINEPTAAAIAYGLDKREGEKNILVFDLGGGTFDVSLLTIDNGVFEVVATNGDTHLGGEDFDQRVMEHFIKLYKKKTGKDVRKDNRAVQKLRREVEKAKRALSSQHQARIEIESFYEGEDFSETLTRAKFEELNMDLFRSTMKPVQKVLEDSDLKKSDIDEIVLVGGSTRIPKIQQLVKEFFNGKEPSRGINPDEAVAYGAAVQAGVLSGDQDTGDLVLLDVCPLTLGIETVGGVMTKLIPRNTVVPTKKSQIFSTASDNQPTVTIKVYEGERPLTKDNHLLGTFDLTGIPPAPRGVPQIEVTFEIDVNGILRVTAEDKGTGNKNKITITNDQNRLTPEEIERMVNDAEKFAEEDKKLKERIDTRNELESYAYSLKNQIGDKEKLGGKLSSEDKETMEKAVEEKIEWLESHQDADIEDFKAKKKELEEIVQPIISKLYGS
Sequence of His6-BiP NBD (aa 28-405) (P11021 28-405): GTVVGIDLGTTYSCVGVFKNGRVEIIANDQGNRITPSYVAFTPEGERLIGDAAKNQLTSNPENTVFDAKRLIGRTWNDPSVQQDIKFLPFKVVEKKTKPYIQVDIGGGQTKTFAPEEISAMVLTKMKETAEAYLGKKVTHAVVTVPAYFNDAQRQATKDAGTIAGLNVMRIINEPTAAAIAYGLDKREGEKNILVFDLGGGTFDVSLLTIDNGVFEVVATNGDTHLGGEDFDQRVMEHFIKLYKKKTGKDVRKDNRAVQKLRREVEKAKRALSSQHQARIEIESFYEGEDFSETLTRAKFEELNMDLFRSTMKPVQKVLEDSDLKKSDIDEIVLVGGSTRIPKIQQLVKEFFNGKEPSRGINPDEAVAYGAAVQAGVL

Kd [1] | Kd (His6-BiP NBD (aa 28-405)) [µM] | Kd (WT-HYPE (aa 102-458)) [µM] | Binder
4.5 µM and 6.1 µM | 3.16 | – | B1
– | – | 6.85 | B2
